Measured values published in publication PMC11985770, “The SlERF4-9-SlCDF1/3-SlAEC2/SlPIN5 module regulates tomato root morphogenesis”.

B1: proCDF3 probe (P2 site) (dsDNA)
DNA 1: CGTCAACTCGCCGGCGGCGACTTCGTCGGA
DNA 2: TCCGACGAAGTCGCCGCCGGCGAGTTGACG
B2: proCDF1 probe (P1 site) (dsDNA)
DNA 1: ACGACGTTGGCCGGCGGCGGCGAATTCACGGCGGCTAAACGAGTTTT
DNA 2: AAAACTCGTTTAGCCGCCGTGAATTCGCCGCCGCCGGCCAACGTCGT

Target: SlERF4-9-GST (Solanum lycopersicum (tomato), UniProt A0A3Q7G811 1-264)
Assay: EMSA; Beyotime Chemiluminescent EMSA Kit; 100x cold probe as competitor; buffer, salt, pH and temperature not stated
Details: protein: recombinant; tags: GST (pGEX6P-1); label: biotin on both strands (3' end); blunt

SlERF4-9-GST, sequence (A0A3Q7G811 entry or part of it): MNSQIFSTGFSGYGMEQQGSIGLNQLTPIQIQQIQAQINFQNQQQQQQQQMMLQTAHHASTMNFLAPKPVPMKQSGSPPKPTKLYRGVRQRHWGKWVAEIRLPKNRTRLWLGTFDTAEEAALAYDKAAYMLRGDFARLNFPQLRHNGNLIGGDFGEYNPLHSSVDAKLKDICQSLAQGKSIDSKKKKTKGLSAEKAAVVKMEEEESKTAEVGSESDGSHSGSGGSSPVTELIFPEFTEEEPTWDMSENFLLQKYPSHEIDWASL

Row | Binder | binding result
1 | B1 | binds
2 | B2 | binds
